T1: human recombinant renin (human, UniProt P00797 67-406, limits assumed)
T1 sequence (looked up): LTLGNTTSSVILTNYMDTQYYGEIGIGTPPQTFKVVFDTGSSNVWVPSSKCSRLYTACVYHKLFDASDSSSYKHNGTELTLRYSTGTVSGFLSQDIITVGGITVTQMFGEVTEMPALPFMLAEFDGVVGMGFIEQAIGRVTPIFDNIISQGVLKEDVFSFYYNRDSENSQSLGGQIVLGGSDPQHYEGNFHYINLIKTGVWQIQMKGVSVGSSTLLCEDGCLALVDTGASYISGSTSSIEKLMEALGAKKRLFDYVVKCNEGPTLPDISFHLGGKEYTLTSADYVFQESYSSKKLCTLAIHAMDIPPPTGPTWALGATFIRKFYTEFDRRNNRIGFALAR

B1: isolated peptide 1, YFVP (Tyr-Phe-Val-Pro) (peptide)
peptide: YFVP
B2: isolated peptide 2, SGRDP (Ser-Gly-Arg-Asp-Pro) (peptide)
peptide: SGRDP
B3: isolated peptide 3, MVWGP (Met-Val-Trp-Gly-Pro) (peptide)
peptide: MVWGP
B4: isolated peptide 4, TGSYTEGWS (Thr-Gly-Ser-Tyr-Thr-Glu-Gly-Trp-Ser) (peptide)
peptide: TGSYTEGWS

Target: angiotensin converting enzyme (ACE)
Test: cell-based or functional assay

Question: Which “IC50 of in vitro ACE activity inhibition (FAPGG substrate, absorbance at 345 nM)” value (from here on “IC50 of in vitro ACE activity inhibition”) does the source give for B1 here?
Answer: 250 µg/mL

Question: For B2, which “IC50 of in vitro ACE activity inhibition” value is on record?
Answer: 510 µg/mL

Question: B3 was tested. Which “IC50 of in vitro ACE activity inhibition” value did it give?
Answer: 21 µg/mL

Question: How did the “IC50 of in vitro ACE activity inhibition” value turn out when B4 was run?
Answer: 550 µg/mL

Target: T1, human recombinant renin
Test: cell-based or functional assay

Question: B1 was tested. Which “% Inhibition of renin activity at 1 mg/mL peptide (fluorometric Renin Inhibitor Screening Assay Kit)” value (“% Inhibition of renin activity” below) did it give?
Answer: -40.5%

Question: For B2, which “% Inhibition of renin activity” value is on record?
Answer: -54.5%

Question: For B3, which “% Inhibition of renin activity” value is on record?
Answer: -46.4%

Question: For B4, which “% Inhibition of renin activity” value is on record?
Answer: 107%

Reference: patent publication US20210017240A1 (ACCESS BUSINESS GROUP INTERNATIONAL, published 2021)
